Changes are numbered by the printed parent chain.
T1: human M-CSF (human, UniProt P09603 33-190)
T1 chain: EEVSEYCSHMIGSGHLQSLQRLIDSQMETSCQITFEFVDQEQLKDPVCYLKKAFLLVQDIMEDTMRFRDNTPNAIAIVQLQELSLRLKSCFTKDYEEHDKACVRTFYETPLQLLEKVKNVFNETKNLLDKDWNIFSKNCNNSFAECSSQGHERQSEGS

B1: monoclonal antibody 3.8.3 (antibody, human IgG2, kappa, V domains shown)
VH: QVQLVESGGGLVKPGGSLRLSCAASGFTFSDYYMSWIRQAPGKGLEWFSYISSSGSTIYYADSVKGRFTISRDNAKNSLSLQMNSLRAEDTAVYYCARGLTGDYWGQGTLVTVSS
VL: DIQMTQSPSSVSASVGDRVTISCRASQDISGWLAWYQQKPGKAPKLLISATSSLHSGVPSRFSGSGSGTDFTLTISSLQPEDFATYYCQQTNSFPFTFGPGTKVDIKR
B2: monoclonal antibody 2.7.3 (antibody, human IgG4, kappa, V domains shown)
VH: QVQLVESGGGVVQPGRSLRLSCAASGFTFSSYGMHWVRQAPGKGLEWVAFIWYDGSNKYYADSVKGRFTISRDNSKNTLYLQMNSLRAEDTAVYYCARGYRVYFDYWGQGTLVTVSS
VL: DIQMTQSPSSVSASVGDRVTITCRASQDISSWLAWYQRKPGKAPKLQIYAASSLESGVPSRFNGSGSGTDFTLSISSLQPEDFATYYCQQTNSFPLTFGGGTKVEIKR
B3: monoclonal antibody 100 (antibody, human IgG2, kappa, V domains shown)
VH: EVQLLESGGGLVQPGGSLRLSCAASGFTFSSYAMSWVRQAPGKGLEWVSAISGRGGRTYFADSVKGRFTISRDNSKNTLYLQMNSLRAEDTAVYFCAVEGYSGRYGFFDYWGQGTLVTVSS
VL: EIVMTQSPATLSVSPGERATLSCRASQSVSSNLAWYQQKPGQAPRLLIYGASTRASGIPDRISGSGSGTEFTLIISSLQSEDFAVYYCQQSNNWPFTFGPGTKVDIKR
B4: monoclonal antibody 252 (antibody, human IgG2, kappa, V domains shown)
VH: QVQLVESGGGLVKPGGSLRLSCAASGFTFSDYYMSWIRQAPGKGLEWISYISGSGSTIYYADSVKGRFTISRDNAKNSLYLQMNSLRAEDTAVYHCARALGGMDVWGQGTTVTVSS
VL: DIQMTQSPSSLSASVGDRVTITCRASQSISGFLNWYQQKPGKAPKLLIYATSSLQSGVPFRFSGSGSGTDFTLTISSLQPEDFATYYCQQSYSVPFTFGPGTKVDIKR
B5: monoclonal antibody 88 (antibody, human IgG2, kappa, V domains shown)
VH: EVQLVESGGGLVQPGGSLRLSCAASGFTFSSYWMSWVRQAPGKGLEWVANIKQDGSEKYYVDSVKGRFTISRDNAKNSLYLQMNSLRAEDTAVYYCAPGIAAAGRAYWGQGTLVTVSS
VL: B4 VL with A25P, S28D, G31S, F32Y, T51A, F60L, V94T
B6: monoclonal antibody 1.120.1 (antibody, human IgG2, kappa, V domains shown)
VH: QVQLVQSGAEVKKPGASVKVSCKASGYTFTSYGISWVRQAPGQGLEWMGWISAYNGNTNYAQKLQDRVTMTTDTSTTTAYMELRSLRSDDTAVYYCARRAYGANFFDYWGQGTLVTVSS
VL: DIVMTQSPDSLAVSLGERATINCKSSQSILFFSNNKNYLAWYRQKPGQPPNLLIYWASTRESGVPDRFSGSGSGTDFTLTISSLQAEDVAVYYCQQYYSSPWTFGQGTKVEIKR
B7: monoclonal antibody 8.10.3 (antibody, human IgG2, kappa, V domains shown)
VH: EVQLVESGGGLVQPGGSLRLSCAASGFTFSSFSMTWVRQAPGKGLEWVSYISSRSSTISYADSVKGRFTISRDNAKNSLYLQMNSLRDEDTAVYYCARDPLLAGATFFDYWGQGTLVTVSS
VL: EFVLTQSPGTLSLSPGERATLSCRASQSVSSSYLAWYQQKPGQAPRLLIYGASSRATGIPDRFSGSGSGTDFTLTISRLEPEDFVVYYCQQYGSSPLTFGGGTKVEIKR
notes: Human antibody from hybridoma 8.10.3
B8: monoclonal antibody 9.7.2IF (antibody, human IgG2, kappa, V domains shown)
VH: B4 VH with I48V, G53S, H95Y, A99R, L100I
VL: B4 VL with N34I, K39R, F60S, V94T
B9: monoclonal antibody 9.7.2 (antibody, human IgG4, kappa, V domains shown)
VH: B4 VH with I48V, G53S, H95Y, A99R, L100I
VL: B4 VL with N34I, K39R, F60L, G66E, V94T
B10: monoclonal antibody 9.14.4 (antibody, human IgG4, kappa)
heavy: QVQLVESGGGLVKPGGSLRLSCAASGFTFSDYYMSWIRQAPGKGLEWVSYISSSGSTIYYADSVKGRFTISRDNAKNSLYLQMNSLRAEDTAVYYCARGLTGDYWGQGTLVTVSSASTKGPSVFPLAPCSRSTSESTAALGCLVKDYFPEPVTVSWNSGALTSGVHTFPAVLQSSGLYSLSSVVTVPSSSLGTKTYTCNVDHKPSNTKVDKRVESKYGPPCPSCPAPEFLGGPSVFLFPPKPKDTLMISRTPEVTCVVVDVSQEDPEVQFNWYVDGVEVHNAKTKPREEQFNSTYRVVSVLTVLHQDWLNGKEYKCKVSNKGLPSSIEKTISKAKGQPREPQVYTLPPSQEEMTKNQVSLTCLVKGFYPSDIAVEWESNGQPENNYKTTPPVLDSDGSFFLYSRLTVDKSRWQEGNVFSCSVMHEALHNHYTQKSLSLSPGK
light: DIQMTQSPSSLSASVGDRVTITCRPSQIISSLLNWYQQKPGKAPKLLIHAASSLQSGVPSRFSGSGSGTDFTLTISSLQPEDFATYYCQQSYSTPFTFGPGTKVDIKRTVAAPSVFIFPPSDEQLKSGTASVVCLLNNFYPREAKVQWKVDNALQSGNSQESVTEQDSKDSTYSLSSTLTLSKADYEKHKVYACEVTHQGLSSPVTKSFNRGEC
B11: monoclonal antibody 9.14.4I (antibody, human IgG2, kappa)
heavy: QVQLVESGGGLVKPGGSLRLSCAASGFTFSDYYMSWIRQAPGKGLEWVSYISSSGSTIYYADSVKGRFTISRDNAKNSLYLQMNSLRAEDTAVYYCARGLTGDYWGQGTLVTVSSASTKGPSVFPLAPCSRSTSESTAALGCLVKDYFPEPVTVSWNSGALTSGVHTFPAVLQSSGLYSLSSVVTVPSSNFGTQTYTCNVDHKPSNTKVDKTVERKCCVECPPCPAPPVAGPSVFLFPPKPKDTLMISRTPEVTCVVVDVSHEDPEVQFNWYVDGVEVHNAKTKPREEQFNSTFRVVSVLTVVHQDWLNGKEYKCKVSNKGLPAPIEKTISKTKGQPREPQVYTLPPSREEMTKNQVSLTCLVKGFYPSDIAVEWESNGQPENNYKTTPPMLDSDGSFFLYSKLTVDKSRWQQGNVFSCSVMHEALHNHYTQKSLSLSPGK
light: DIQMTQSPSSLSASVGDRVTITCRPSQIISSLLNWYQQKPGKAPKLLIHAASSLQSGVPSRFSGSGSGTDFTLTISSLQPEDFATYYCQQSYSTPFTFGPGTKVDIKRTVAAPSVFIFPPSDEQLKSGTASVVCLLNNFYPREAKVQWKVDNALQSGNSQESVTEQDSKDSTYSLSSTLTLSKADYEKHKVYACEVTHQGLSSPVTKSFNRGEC

Molecular target: T1, human M-CSF
Experiment: receptor binding inhibition: antibody titrated against 125I-M-CSF binding to c-fms on cells (NIH-3T3/human c-fms or M-NSF-60)

| IC50 [nM] | Binder |
| --- | --- |
| 0.07 | B1 |
| 0.308 | B2 |
| 1.25 | B3 |
| 0.747 | B4 |
| 0.445 | B5 |
| 0.157 | B6 |

Molecular target: T1, human M-CSF
Experiment: SPR, BIACORE 3000, 25 C, M-CSF amine-coupled on B1 chip, antibody injected, 1:1 global fit

| Kd [nM] | Binder |
| --- | --- |
| 0.4 | B1 |
| 4.7 | B2 |
| 5.4 | B6 |

Molecular target: T1, human M-CSF
Experiment: receptor binding inhibition: antibody titrated against 125I-M-CSF binding to c-fms on cells (NIH-3T3/human c-fms or M-NSF-60)
Remark: another data set of the same source

| IC50 [nM] | Binder |
| --- | --- |
| 1.5 | B7 |
| 0.529 | B8 |
| 0.006 | B9 |
| 0.041 | B10 |
| 0.297 | B11 |

Molecular target: T1, human M-CSF
Experiment: cell-based or functional assay

| Human Whole Blood Monocyte Activation Assay [IC50, M] [M] | M-CSF Mouse Monocytic Cell Proliferation Assay [IC50, M] [M] | Binder |
| --- | --- | --- |
| 8.6e-11 | 7.3e-11 | B1 |
| 7.15e-10 | 1.96e-10 | B2 |
| 1.53e-10 | 7.44e-10 | B3 |
| 8.67e-10 | 1.86e-10 | B4 |
| 5.8e-10 | 2.31e-10 | B5 |
| 8.85e-10 | 1.99e-10 | B6 |

Molecular target: T1, human M-CSF
Experiment: SPR, BIACORE 3000, 25 C, M-CSF amine-coupled on CM5 chip, antibody injected, 1:1 global fit

| Kd [nM] | koff [s⁻¹] | Binder |
| --- | --- | --- |
| 0.02 | 1.7e-05 | B3 |
| 0.0133 | 1.03e-06 | B4 |
| 1.33 | 7.3e-05 | B5 |

Molecular target: T1, human M-CSF
Experiment: cell-based or functional assay
Remark: another data set of the same source

| Human Whole Blood Monocyte Activation Assay [IC50, M] [M] | M-CSF Mouse Monocytic Cell Proliferation Assay [IC50, M] [M] | Binder |
| --- | --- | --- |
| 2.8e-10 | 4.13e-10 | B7 |
| 1.12e-09 | 7.37e-10 | B8 |
| 1.98e-10 | 7.37e-10 | B9 |
| 6.48e-10 | 2.02e-10 | B10 |
| 2.49e-10 | 2.02e-10 | B11 |
